Experimental data taken from the supplement of paper PMC11865577.

Columns and labels:
Assay in all cases: pull-down binding Z-score (relative to library population); higher = stronger binding
Settings in all cases: RNA library: Library-2
[1] = test system: TO-3-N3 (biotin conjugate)
Method in brief: (§1)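 Heat-folded RNA library (1 μg, Cy5 or Cy3 end label, phosphate/NaCl/KCl buffer) was captured for 60 min at 25 °C on streptavidin beads displaying 100 pmol of biotin-conjugated small molecule, then washed three times. The bound fraction, eluted in hot SDS, was hybridised to a DNA barcode microarray at 55.5 °C for 20 h. Z-scores for binding were taken against the library mean and standard deviation after beads-only subtraction and trimmed averaging of replicate barcoded probes.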

[2] = test system: TO-N3 (biotin conjugate)
Method in brief: as §1

[3] = test system: TO-N3-2 (biotin conjugate)
Method in brief: as §1

[4] = test system: TO-3-N3-2 (biotin conjugate)
Method in brief: as §1

CUCUCAUUUUGUUAACUUAGACAACCUGAGAG
pull-down binding Z-score [1]: -0.827
pull-down binding Z-score [2]: -1.13
pull-down binding Z-score [3]: -1.2
pull-down binding Z-score [4]: -0.35

CUCUGGAACACUUUUACAAGACUUCAGAG [SHAPE_invivo_SARS-CoV-2_Motif_367]
pull-down binding Z-score [1]: -0.0115
pull-down binding Z-score [2]: -0.338
pull-down binding Z-score [3]: -0.513
pull-down binding Z-score [4]: -0.651

CUCUUGAGUGCAUUAAAGACCUUCUAGCACGUGCUGGUAAAGCUUCAUGCACUUUGUCCGAACAACUGGACUUUAUUGACACUAAGAG [SHAPE_invitro_SARS-CoV-2_Multi_69_ComplexLevel_1]
pull-down binding Z-score [1]: -0.706
pull-down binding Z-score [2]: -0.515
pull-down binding Z-score [3]: 0.585
pull-down binding Z-score [4]: -0.197

CUCUUGUAAUGUAAACAGAUUUAAUGUUGCUAUUACCAGAG
pull-down binding Z-score [1]: 0.0416
pull-down binding Z-score [2]: 0.0725
pull-down binding Z-score [3]: -0.0897
pull-down binding Z-score [4]: -0.0635

CUGAAAAAUGGGAAUCUGGAGUAAAAGACUGUGUUGUAUUACACAGUUACUUCACUUCAGACUAUUACCAG
pull-down binding Z-score [1]: -0.376
pull-down binding Z-score [2]: -0.329
pull-down binding Z-score [3]: -0.48
pull-down binding Z-score [4]: -0.182

CUGACAAAGUUUUCAG
pull-down binding Z-score [1]: 0.631
pull-down binding Z-score [2]: 0.341
pull-down binding Z-score [3]: -0.543
pull-down binding Z-score [4]: -0.329

CUGACUUAACAAAGCCUUACAUUAAGUGGGAUUUGUUAAAAUAUGACUUCACGGAAGAGAGGUUAAAACUCUUUGACCGUUAUUUUAAAUAUUGG
pull-down binding Z-score [1]: -0.707
pull-down binding Z-score [2]: -0.517
pull-down binding Z-score [3]: -0.193
pull-down binding Z-score [4]: -0.143

CUGAUCCUAGUUUUCUGGGUAG [SHAPE_invivo_SARS-CoV-2_Motif_108]
pull-down binding Z-score [1]: -0.135
pull-down binding Z-score [2]: -0.0828
pull-down binding Z-score [3]: -0.359
pull-down binding Z-score [4]: -0.369

CUGCACUGUUAGCGGGUACAAUCACUUCUGGUUGGACCUUUGGUGCAG [SHAPE_invitro_SARS-CoV-2_Motif_437]
pull-down binding Z-score [1]: -0.428
pull-down binding Z-score [2]: -0.574
pull-down binding Z-score [3]: -0.738
pull-down binding Z-score [4]: -0.189

CUGCAGAUGCAG [IAV_invivo_HA_4_Motif_2+IAV_invivo_HA_4_Motif_2]
pull-down binding Z-score [1]: -0.112
pull-down binding Z-score [2]: -0.419
pull-down binding Z-score [3]: -1.28
pull-down binding Z-score [4]: -0.317

CUGCCUAUAUGGAAG
pull-down binding Z-score [1]: -0.492
pull-down binding Z-score [2]: -0.773
pull-down binding Z-score [3]: -0.645
pull-down binding Z-score [4]: -0.364

CUGCUUUUGGCUUAGUUGCAG
pull-down binding Z-score [1]: 0.285
pull-down binding Z-score [2]: 0.125
pull-down binding Z-score [3]: -0.231
pull-down binding Z-score [4]: 0.206

CUGGAAUUGCCGUUUUAG [SHAPE_invivo_SARS-CoV-2_Motif_210]
pull-down binding Z-score [1]: 0.0793
pull-down binding Z-score [2]: -0.0237
pull-down binding Z-score [3]: -0.115
pull-down binding Z-score [4]: -0.112

CUGGACUCUAAAUAGAAACCAACCUGCUGCAACAGCAUUGGCCAACACAAUAGAAGUGUUCAGAUCAAAUGGCCUCACGGCCAAUGAGUCUGG
pull-down binding Z-score [1]: -0.791
pull-down binding Z-score [2]: -0.231
pull-down binding Z-score [3]: 0.269
pull-down binding Z-score [4]: -0.486

CUGGCAGUAACCAG [SHAPE_invivo_SARS-CoV-2_Motif_538]
pull-down binding Z-score [1]: -0.215
pull-down binding Z-score [2]: -0.233
pull-down binding Z-score [3]: -0.733
pull-down binding Z-score [4]: -0.422

CUGGGAAACUGUUAAAAUUCAGUGGUCCCAG [IAV_invivo_PB2_1_Motif_27+IAV_invivo_PB2_1_Motif_27]
pull-down binding Z-score [1]: -0.682
pull-down binding Z-score [2]: -0.972
pull-down binding Z-score [3]: -0.97
pull-down binding Z-score [4]: -0.0981

CUGGGCCAUAAGGACCAG [IAV_invivo_NP_5_Motif_20+IAV_invivo_NP_5_Motif_20]
pull-down binding Z-score [1]: -0.0792
pull-down binding Z-score [2]: -0.418
pull-down binding Z-score [3]: -0.786
pull-down binding Z-score [4]: -0.477

CUGGGGGCAAUCAGUUUCUGG [IAV_invivo_HA_4_Motif_20+IAV_invivo_HA_4_Motif_20]
pull-down binding Z-score [1]: 1.05
pull-down binding Z-score [2]: 0.946
pull-down binding Z-score [3]: -0.107
pull-down binding Z-score [4]: -0.0228

CUGGUCCAUGCUCAUACCCAAGCAGAAAGUGGCAGGCCCUCUUUGUAUCAGAAUGGACCAG [IAV_invivo_NS1_NEP_8_Motif_8+IAV_invivo_NS1_NEP_8_Motif_8]
pull-down binding Z-score [1]: -0.528
pull-down binding Z-score [2]: -0.453
pull-down binding Z-score [3]: 0.562
pull-down binding Z-score [4]: -0.24

CUGUAGCUGCAUUUCACCAAGAAUGUAGUUUACAG [DMSMaPseq_invitro_SARS-CoV-2_Motif_500]
pull-down binding Z-score [1]: 0.437
pull-down binding Z-score [2]: 0.121
pull-down binding Z-score [3]: -0.632
pull-down binding Z-score [4]: -0.0203

CUGUCACUAAG
pull-down binding Z-score [1]: -0.404
pull-down binding Z-score [2]: -0.36
pull-down binding Z-score [3]: -0.584
pull-down binding Z-score [4]: -0.0755

CUGUCAUGGAAGCAAGUACUGGCAG [IAV_invivo_PA_3_Motif_16+IAV_invivo_PA_3_Motif_16]
pull-down binding Z-score [1]: 0.591
pull-down binding Z-score [2]: 0.596
pull-down binding Z-score [3]: 0.323
pull-down binding Z-score [4]: 0.12

CUGUCCAAGACAUGUGAUCUGCACCUCUGAAGACAUGCUUAACCCUAAUUAUGAAGAUUUACUCAUUCGUAAGUCUAAUCAUAAUUUCUUGGUACAG
pull-down binding Z-score [1]: -0.274
pull-down binding Z-score [2]: -0.347
pull-down binding Z-score [3]: -0.0124
pull-down binding Z-score [4]: -0.739

CUGUGGGUUUUACACUUAAAAACACAG [DMSMaPseq_invitro_SARS-CoV-2_Motif_239]
pull-down binding Z-score [1]: -0.233
pull-down binding Z-score [2]: -0.32
pull-down binding Z-score [3]: -0.754
pull-down binding Z-score [4]: -0.131

CUGUUAAUGUAGCAUUUGAGCUUUGGGCUAAGCGCAACAUUAAACCAG
pull-down binding Z-score [1]: 0.0322
pull-down binding Z-score [2]: 0.38
pull-down binding Z-score [3]: 0.335
pull-down binding Z-score [4]: -0.268

CUGUUCCACCAUUGAAGAGCUCAG [IAV_invivo_PB1_2_Motif_38+IAV_invivo_PB1_2_Motif_38]
pull-down binding Z-score [1]: -0.372
pull-down binding Z-score [2]: 0.134
pull-down binding Z-score [3]: 0.457
pull-down binding Z-score [4]: -0.178

CUGUUGAUUCAUCACAG
pull-down binding Z-score [1]: 1.37
pull-down binding Z-score [2]: 1.14
pull-down binding Z-score [3]: -0.421
pull-down binding Z-score [4]: 0.174

CUGUUGGUACCAAUUUACCUUUACAGCUAGGUUUUUCUACAGGUGUUAACCUAGUUGCUGUACCUACAG
pull-down binding Z-score [1]: -0.959
pull-down binding Z-score [2]: -1.16
pull-down binding Z-score [3]: -1.02
pull-down binding Z-score [4]: -0.514

CUGUUUGGAUGACAG
pull-down binding Z-score [1]: -0.461
pull-down binding Z-score [2]: -0.871
pull-down binding Z-score [3]: -1.01
pull-down binding Z-score [4]: -0.753

CUGUUUUUCAG
pull-down binding Z-score [1]: -0.739
pull-down binding Z-score [2]: -1.23
pull-down binding Z-score [3]: -1.53
pull-down binding Z-score [4]: -0.661

CUUACUGACAAUGUAUACAUUAAAAAUGCAGACAUUGUGGAAG [DMSMaPseq_invitro_SARS-CoV-2_Motif_59]
pull-down binding Z-score [1]: -0.453
pull-down binding Z-score [2]: -0.328
pull-down binding Z-score [3]: -0.455
pull-down binding Z-score [4]: -0.18

CUUAGCUGUCUUUGAUAAAAAUCUCUAUGACAAACUUGUUUCAAGCUUUUUGGAAAUGAAGAGUGAAAAGCAAGUUGAACAAAAGAUCGCUGAG [SHAPE_invivo_SARS-CoV-2_Motif_73]
pull-down binding Z-score [1]: 0.216
pull-down binding Z-score [2]: 0.0191
pull-down binding Z-score [3]: 0.552
pull-down binding Z-score [4]: 0.0166

CUUAGGGACAACCUUGAACCUGGG [IAV_invivo_PA_3_Motif_29+IAV_invivo_PA_3_Motif_29]
pull-down binding Z-score [1]: -0.637
pull-down binding Z-score [2]: -0.557
pull-down binding Z-score [3]: 0.0467
pull-down binding Z-score [4]: -0.446
